Reference: doi:10.1101/2022.04.28.489915 (bioRxiv, 2022)

Molecular target: T1, TolC (E. coli, UniProt P02930 23-493)
T1 sequence: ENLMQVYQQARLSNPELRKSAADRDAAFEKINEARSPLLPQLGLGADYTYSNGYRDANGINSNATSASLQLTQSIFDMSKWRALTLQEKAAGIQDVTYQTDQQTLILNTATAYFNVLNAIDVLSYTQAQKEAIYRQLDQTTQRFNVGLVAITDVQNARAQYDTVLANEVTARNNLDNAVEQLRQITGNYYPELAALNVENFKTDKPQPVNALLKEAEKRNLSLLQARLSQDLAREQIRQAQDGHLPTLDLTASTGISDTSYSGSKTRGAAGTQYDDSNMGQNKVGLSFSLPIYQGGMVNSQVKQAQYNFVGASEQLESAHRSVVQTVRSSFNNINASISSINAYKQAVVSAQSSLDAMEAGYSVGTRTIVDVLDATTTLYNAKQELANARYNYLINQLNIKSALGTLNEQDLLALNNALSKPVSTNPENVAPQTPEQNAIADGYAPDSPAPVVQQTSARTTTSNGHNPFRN
Test: SEC

binding result: binds
B1: residues 1-190 of colicin E1 (colE1-T) (domain or fragment)
chain: METAVAYYKDGVPYDDKGQVIITLLNGTPDGSGSGGGGGKGGSKSESSAAIHATAKWSTAQLKKTQAEQAARAKAAAEAQAKAKANRDALTQRLKDIVNEALRHNASRTPSATELAHANNAAMQAEDERLRLAKAEEKARKEAEAAEKAFQEAEQRRKEIEREKAETERQLKLAEAEEKRLAALSEEAKA
